This is an account of results in patent publication US9682130B2 (priority 2015, dated 2017).

Data set [1] in a line: Jones Dye test for nasolacrimal duct blockage. Type of data set: in vivo, NZW rabbit. Conditions: Day 21, all Ranpirnase concentrations. The method, then:
The animals were also assayed on day 21 for nasolacrimal duct blockage by performing a Jones Dye test. On Day 21, a drop of sodium fluorescein was placed in each eye and the time to the dye appearing in the ipsilateral nostril was measured.

Data set [2] deals with Human Adenovirus 8 (Ad8 strain 13306). Description: Virus yield reduction assay, Adenovirus 8. Type of data set: cell-based. How it is done: The concentration of test compound required to inhibit CPE by 50% or reduce red uptake into cells by 50% (EC50) was calculated by regression analysis. The toxicity of the compound without virus present was similarly calculated using the uninfected wells treated with test compounds compared with untreated cell controls. The concentration of compound that would cause 50% cytotoxic effects in the absence of virus (CC50) was estimated by linear regression analysis. The selectivity index (SI) is the CC50 divided by EC50.
The virus yield reduction assay was used to determine actual virus amounts in the presence and absence of the test compound; this is the confirmatory assay for antiviral activity. […] Replicate wells of each compound concentration or control were pooled and frozen at −80° C. Samples were thawed and diluted by 10-fold serial dilutions. A 100 μL aliquot of each dilution was then plated onto 4 replicate wells of 96-well plates seeded with the applicable cells for each virus strain. Plates were incubated as noted above until viral CPE reached its endpoint, then each well was scored microscopically for the presence of viral CPE. The virus titer was determined based on the endpoint using the Reed-Muench method. […]

B1: Ranpirnase (protein, UniProt P22069 1-104, looked up)
Protein P-30: QDWLTFQKKHITNTRDVDCDNIMSTNLFHCKDKNTFIYSRPEPVKAICKGIIASKNVLTTSEFYLSDCNVTSRPCKYKLKKSTNKFCVTCENQAPVHFVGVGSC
notes: amphibian ribonuclease originally isolated from oocytes and/or early embryos of Rana pipiens; pancreatic ribonuclease (RNase A) superfamily, about 12 kD
With B1, the “Blocked nasolacrimal ducts, Jones Dye test” value in data set [1] is “no Ranpirnase treated rabbits, regardless of concentration, resulted in blocked nasolacrimal ducts”. The “Yield Reduction Assay EC50” value in data set [2] worked out at 25.1 µg/mL.
